# PMC7703929, “Unraveling the mechanism of recognition of the 3’ splice site of the adenovirus major late promoter intron by the alternative splicing factor PUF60”
# T1: SF1 1-260 (human, UniProt Q15637 1-260, C171A)
# T1 sequence: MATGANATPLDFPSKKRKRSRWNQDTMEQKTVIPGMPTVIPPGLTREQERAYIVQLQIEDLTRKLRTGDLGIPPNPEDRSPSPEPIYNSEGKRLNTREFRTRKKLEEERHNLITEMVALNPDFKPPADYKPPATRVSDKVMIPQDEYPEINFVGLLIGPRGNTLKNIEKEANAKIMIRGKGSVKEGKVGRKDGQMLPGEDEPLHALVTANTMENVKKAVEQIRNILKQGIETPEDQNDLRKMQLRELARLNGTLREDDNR
# Key:
# [1] = target: T2, PUF60 RRMs+UHM (human, UniProt Q9UHX1 118-559, C129S;C255A;C487A); test: fluorescence anisotropy; Kd1, two-site sequential model; FA: 50 mM Tris-HCl, 150 mM NaCl, 20 uM EDTA, pH 8.0, room temperature, 10 nM probe; EMSA: same buffer, 5 uM RNA, 5.5% native gel in 0.5X TBE at 4 C; crystals: 0.1 M Tris-HCl pH 8.7, 25% PEG 4000, 5-10 mM BaCl2, 20 C; conditions: protein: recombinant; tags: His tag removed by TEV; N-terminal GRGS left; chain copies: 2; label: 5'-fluorescein
# T2 sequence (Q9UHX1 118-559 C129S/C255A/C487A): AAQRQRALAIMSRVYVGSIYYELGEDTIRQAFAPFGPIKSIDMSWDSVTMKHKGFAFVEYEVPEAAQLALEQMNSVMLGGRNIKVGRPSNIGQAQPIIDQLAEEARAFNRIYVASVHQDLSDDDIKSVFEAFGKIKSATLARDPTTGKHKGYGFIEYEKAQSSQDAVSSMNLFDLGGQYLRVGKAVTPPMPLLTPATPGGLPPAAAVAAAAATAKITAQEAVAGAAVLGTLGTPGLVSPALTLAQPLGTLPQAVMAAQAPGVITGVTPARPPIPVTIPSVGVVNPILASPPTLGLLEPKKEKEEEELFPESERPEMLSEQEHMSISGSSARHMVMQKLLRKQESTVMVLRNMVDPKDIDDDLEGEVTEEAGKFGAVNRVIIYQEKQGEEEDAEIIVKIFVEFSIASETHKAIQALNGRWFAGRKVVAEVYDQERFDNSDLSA
# [2] = target: PUF60 RRMs (human, UniProt Q9UHX1 118-316, C129S;C255A); test: as above; conditions: protein: recombinant; tags: His tag removed by TEV; chain copies: 2; label: 5'-fluorescein
# Chain of PUF60 RRMs (Q9UHX1 118-316 C129S/C255A): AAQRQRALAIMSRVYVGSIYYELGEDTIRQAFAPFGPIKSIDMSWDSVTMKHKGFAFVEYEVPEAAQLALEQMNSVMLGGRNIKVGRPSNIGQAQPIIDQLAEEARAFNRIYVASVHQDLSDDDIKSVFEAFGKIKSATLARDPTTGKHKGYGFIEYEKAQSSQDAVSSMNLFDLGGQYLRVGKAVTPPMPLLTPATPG
# [3] = target: PUF60 RRMs+UHM;SF1 1-260 (human;human, UniProt Q9UHX1;Q15637 118-559;1-260, C129S;C255A;C487A|C171A); test: EMSA; further upward shift with both proteins, suggests ternary complex; FA: 50 mM Tris-HCl, 150 mM NaCl, 20 uM EDTA, pH 8.0, room temperature, 10 nM probe; EMSA: same buffer, 5 uM RNA, 5.5% native gel in 0.5X TBE at 4 C; crystals: 0.1 M Tris-HCl pH 8.7, 25% PEG 4000, 5-10 mM BaCl2, 20 C; conditions: protein: recombinant;recombinant; tags: His tag removed by TEV; N-terminal GRGS left;His tag removed by TEV; N-terminal G left; chain copies: 2;1
# Chain of PUF60 RRMs+UHM;SF1 1-260 (Q9UHX1 118-559 C129S/C255A/C487A, one chain of several): as the sequence (Q9UHX1 118-559 C129S/C255A/C487A) above
# [4] = target: T2, PUF60 RRMs+UHM; test: EMSA; two conformations at 20 uM PUF60; RNA 5 uM; FA: 50 mM Tris-HCl, 150 mM NaCl, 20 uM EDTA, pH 8.0, room temperature, 10 nM probe; EMSA: same buffer, 5 uM RNA, 5.5% native gel in 0.5X TBE at 4 C; crystals: 0.1 M Tris-HCl pH 8.7, 25% PEG 4000, 5-10 mM BaCl2, 20 C; conditions: protein: recombinant; tags: His tag removed by TEV; N-terminal GRGS left; chain copies: 2
# [5] = target: T1, SF1 1-260; test: EMSA; SF1 up to 40 uM, RNA 5 uM; FA: 50 mM Tris-HCl, 150 mM NaCl, 20 uM EDTA, pH 8.0, room temperature, 10 nM probe; EMSA: same buffer, 5 uM RNA, 5.5% native gel in 0.5X TBE at 4 C; crystals: 0.1 M Tris-HCl pH 8.7, 25% PEG 4000, 5-10 mM BaCl2, 20 C; conditions: protein: recombinant; tags: His tag removed by TEV; N-terminal G left
Binder,Kd [1] [µM],Kd [2] [µM],binding result [3],binding result [4],binding result [5]
"GAUGUCAUACUUAUCCUGUCCCUUUUUUUU (ssDNA, deoxyribose backbone with A, U, C, G bases (dU)) [*AdML3']",4.61 ± 1.19,3.64 ± 3.6,–,–,–
GAUGUCAUACUUAUCCUGUCCCUUUUUUUU (ssRNA) [AdML3' RNA],–,–,binds,binds,binds
